In US20150268247A1, “Assay for Screening of Anti-Viral Compounds That Inhibit Specific Interaction Interfaces Between Cullin5 and an ElonginB/ElonginC/ CBF-beta/HIV-1 Vif Complex” (UNIVERSITY OF ROCHESTER, priority 2012, published 2015):

What was measured:
[1] = target: T1, Vif/EloB/C/CBFβ quaternary complex (full-length HIV-1 HXB2 Vif(1-192) / ElonginB 1-118 / ElonginC 17 (HIV-1 HXB2; human), P69720; test: fluorescence anisotropy, complex titrated into 25 nM 5-FAM peptide; Sd ± 4.2
[2] = target: T1, Vif/EloB/C/CBFβ quaternary complex …; test: fluorescence anisotropy, complex titrated into 25 nM 5-FAM peptide; Sd ± 0.1
[3] = target: T1, Vif/EloB/C/CBFβ quaternary complex …; test: fluorescence anisotropy, complex titrated into 25 nM 5-FAM peptide; Sd ± 7.0
[4] = target: T1, Vif/EloB/C/CBFβ quaternary complex …; test: fluorescence anisotropy, complex titrated into 25 nM 5-FAM peptide; Sd ± 1.0

KQQWFDLFSDVH (modifications not checked) [Cul5(37-48) peptide]
Kd [1]: 15.6 µM

LFSDVHAVCLWD (modifications not checked) [Cul5(43-54) peptide]
Kd [2]: 2.5 µM

LRQESVTKQQW (modifications not checked) [Cul5(30-40) peptide]
Kd [3]: 16 µM

LFSDVHAVCLWDDKGPAKIHQAL (modifications not checked) [Cul5(43-65) peptide]
Kd [4]: 4.7 µM

KQQWFDLFSDVHAVCLW (modifications not checked) [Cul5(37-53) peptide]
Kd [2]: 1.2 µM
